According to publication PMC9496334, “In Silico Maturation of a Nanomolar Antibody against the Human CXCR2” (Biomolecules, 2022):

Tests used:
[1] = biological target: T1, Biotin-labeled human CXCR2 N-terminal extracellular peptide (pepN48) (Homo sapiens, UniProt P25025, biotin label (position not given)); assay: SPR; biotin-labeled pepN48 immobilised on a streptavidin Series S Sensor Chip SA; Biacore T200; IgG1 antibodies injected as analytes in HBS-EP+ buffer pH 7.4; kinetics fitted globally; details: both partners purified
T1 construct: CXC chemokine receptor 2 (CXCR2, interleukin 8 receptor beta), human, the first 48 residues of the protein; Held on the streptavidin chip by its biotin; also called N-terminal peptide; peptide of extracellular N-terminal domain of human CXCR2
T1 chain: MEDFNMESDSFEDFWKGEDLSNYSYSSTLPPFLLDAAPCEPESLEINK

[2] = biological target: T1, Biotin-labeled human CXCR2 N-terminal …; assay: as above; details: both partners purified

B1: abN48 (antibody, V domains shown)
VH: QVQLVQSGAEVKKPGSSVKVSCKASGGTLSSYAISWVRQAPGQGPEWMGWINPNSGGTNYAQKFQGRVTMTRDTSISTAYMELSRLRPDDTAVYYCASGYCSSTSCYDYWGQGTLVTVSS
VL: QAVLTQPSSLSASPGASVSLTCTLRSGINVGAYRIYWYQQKPGSPPQFLLRYKSDSDKQQGSGVPSRFSGSRDASANAGILLISGLRSEDEADYYCAIWHSSAWVFGGGTQLTVL
notes: VH of abN48; constant region of the human IgG1 heavy chain, from the pFuse heavy-chain vector; VL of abN48, the same for all studied antibodies; light-chain constant region of the pFuse light-chain vector pfuse2ss-hcll2; Full-length IgG1 in the experiments; the crystal structure 6KVF holds the Fab; also called abN48 antibody; source: 293F cells, co-transfected, purified from the medium (HiTrap …)
Kd [1]: 1.3 nM

B2: abN48-2 (antibody, V domains shown)
VH: QVQLVQSGAEVKKPGSSVKVSCKASGGTLSSYAISWVRQAPGQGPEWMGWINPNSGGTNYAQKFQGRVTMTRDTSISTAYMELSRLRPDDTAVYYCASGYCSRTRCYDYWGQGTLVTVSS
VL: QAVLTQPSSLSASPGASVSLTCTLRSGINVGAYRIYWYQQKPGSPPQFLLRYKSDSDKQQGSGVPSRFSGSRDASANAGILLISGLRSEDEADYYCAIWHSSAWVFGGGTQLTVL
notes: VH of abN48-2: as the VH of m1 with two serines of CDR3 changed to arginines; parent VH in PDB 6KVF; constant region of the human IgG1 heavy chain, from the pFuse heavy-chain vector; as the VL of the light chain of m1; light-chain constant region of the pFuse light-chain vector pfuse2ss-hcll2; Full-length IgG1; source: 293F cells, co-transfected, purified from the medium (HiTrap Protein A)
Kd [2]: 0.11 nM | koff [2]: 0.00027 s⁻¹ | kon [2]: 2.5e+06 M⁻¹ s⁻¹

B3: abN48-1 (antibody, V domains shown)
VH: QVQLVQSGAEVKKPGSSVKVSCKASGGTLSSYAISWVRQAPGQGPEWMGWINPNSGGTNYAQKFQGRVTMTRDTSISTAYMELSRLRPDDTAVYYCASGFCTRTICFVYWGQGTLVTVSS
VL: QAVLTQPSSLSASPGASVSLTCTLRSGINVGAYRIYWYQQKPGSPPQFLLRYKSDSDKQQGSGVPSRFSGSRDASANAGILLISGLRSEDEADYYCAIWHSSAWVFGGGTQLTVL
notes: parent VH in PDB 6KVF; constant region of the human IgG1 heavy chain, from the pFuse heavy-chain vector; as the VL of the light chain of m1; light-chain constant region of the pFuse light-chain vector pfuse2ss-hcll2; Full-length IgG1; source: 293F cells, co-transfected, purified from the medium (HiTrap Protein A)
Kd [1]: 0.26 nM

B4: abN48-3 (antibody, V domains shown)
VH: QVQLVQSGAEVKKPGSSVKVSCKASGGTLSSYAISWVRQAPGQGPEWMGWINPNSGGTNYAQKFQGRVTMTRDTSISTAYMELSRLRPDDTAVYYCASGYCSFAICFDSWGQGTLVTVSS
VL: QAVLTQPSSLSASPGASVSLTCTLRSGINVGAYRIYWYQQKPGSPPQFLLRYKSDSDKQQGSGVPSRFSGSRDASANAGILLISGLRSEDEADYYCAIWHSSAWVFGGGTQLTVL
notes: as for B3
Kd [1]: 2 nM

B5: abN48-8 (antibody, V domains shown)
VH: QVQLVQSGAEVKKPGSSVKVSCKASGGTLSSYAISWVRQAPGQGPEWMGWINPNSGGTNYAQKFQGRVTMTRDTSISTAYMELSRLRPDDTAVYYCASGYCNRTRCYDHWGQGTLVTVSS
VL: QAVLTQPSSLSASPGASVSLTCTLRSGINVGAYRIYWYQQKPGSPPQFLLRYKSDSDKQQGSGVPSRFSGSRDASANAGILLISGLRSEDEADYYCAIWHSSAWVFGGGTQLTVL
notes: as for B3
Kd [1]: 0.83 nM

B6: abN48-10 (antibody, V domains shown)
VH: QVQLVQSGAEVKKPGSSVKVSCKASGGTLSSYAISWVRQAPGQGPEWMGWINPNSGGTNYAQKFQGRVTMTRDTSISTAYMELSRLRPDDTAVYYCASGYCSRFNCKDYWGQGTLVTVSS
VL: QAVLTQPSSLSASPGASVSLTCTLRSGINVGAYRIYWYQQKPGSPPQFLLRYKSDSDKQQGSGVPSRFSGSRDASANAGILLISGLRSEDEADYYCAIWHSSAWVFGGGTQLTVL
notes: as for B3
Kd [1]: 0.27 nM

B7: abN48-28 (antibody, V domains shown)
VH: QVQLVQSGAEVKKPGSSVKVSCKASGGTLSSYAISWVRQAPGQGPEWMGWINPNSGGTNYAQKFQGRVTMTRDTSISTAYMELSRLRPDDTAVYYCASGYCSPSGCYVYWGQGTLVTVSS
VL: QAVLTQPSSLSASPGASVSLTCTLRSGINVGAYRIYWYQQKPGSPPQFLLRYKSDSDKQQGSGVPSRFSGSRDASANAGILLISGLRSEDEADYYCAIWHSSAWVFGGGTQLTVL
notes: as for B3
Kd [1]: 0.65 nM

B8: abN48-29 (antibody, V domains shown)
VH: QVQLVQSGAEVKKPGSSVKVSCKASGGTLSSYAISWVRQAPGQGPEWMGWINPNSGGTNYAQKFQGRVTMTRDTSISTAYMELSRLRPDDTAVYYCASGYCGRARCTSFWGQGTLVTVSS
VL: QAVLTQPSSLSASPGASVSLTCTLRSGINVGAYRIYWYQQKPGSPPQFLLRYKSDSDKQQGSGVPSRFSGSRDASANAGILLISGLRSEDEADYYCAIWHSSAWVFGGGTQLTVL
notes: as for B3
Kd [1]: 0.13 nM

B9: abN48-38 (antibody, V domains shown)
VH: QVQLVQSGAEVKKPGSSVKVSCKASGGTLSSYAISWVRQAPGQGPEWMGWINPNSGGTNYAQKFQGRVTMTRDTSISTAYMELSRLRPDDTAVYYCASGYCSRSRCYDYWGQGTLVTVSS
VL: QAVLTQPSSLSASPGASVSLTCTLRSGINVGAYRIYWYQQKPGSPPQFLLRYKSDSDKQQGSGVPSRFSGSRDASANAGILLISGLRSEDEADYYCAIWHSSAWVFGGGTQLTVL
notes: as for B3
Kd [1]: 0.23 nM
